The results in this text go back to patent US20240301062A1 (BEIGENE SWITZERLAND, published 2024).

T1: human claudin 6 (CLDN6) (human, UniProt P56747 1-220)
T1 construct: also called human CLDN6; hCLDN6
T1 sequence: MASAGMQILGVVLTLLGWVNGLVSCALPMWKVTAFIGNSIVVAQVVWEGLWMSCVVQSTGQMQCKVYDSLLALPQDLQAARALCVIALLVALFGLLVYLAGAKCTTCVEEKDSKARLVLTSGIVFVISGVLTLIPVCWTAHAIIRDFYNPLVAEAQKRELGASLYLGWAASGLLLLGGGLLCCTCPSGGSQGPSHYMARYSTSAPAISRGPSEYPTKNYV

B1: BG87P-Bz0 (antibody, V domains shown)
VH: QIQLVQSGAEVKKPGASVKVSCKASGYSFTDYHINWVRQAPGQRLEWMGWIYPGSGYTKYNEKFKVRVTLTVDTSASTAYMELSSLRSEDTAVYFCARSGIYHYVSSYYFDHWGKGTTVTVSS
VL: DIQMTQSPSTLSASVGDRVTITCKASQDVGTAVAWYQQKPGKSPKLLIYWASTRHTGVPSRFSGSGSGTEFTLTISSVQPDDFATYFCQQYSSYTFGGGTKVEIK
notes: also called BG87-Bz0
B2: BG87P-m7 (antibody, V domains shown)
VH: QIQLVQSGAEVKKPGASVKVSCKASGYSFTDYHINWVRQAPGQRLEWMGWIYPGSGYTKYNEKFKGRVTLTVDTSASTAYMELSSLRSEDTAVYFCARSGIYHYVSSYYFDHWGKGTTVTVSS
VL: DIQMTQSPSTLSASVGDRVTITCKASQDVGTAVAWYQQKPGKSPKLLIYWASTRHTGVPSRFSGSGSGTEFTLTISSVQPDDFATYFCQQYSSYTFGGGTKVEIK
notes: PTM removal variant of BG87P-Bz0; constant regions not restated (parent: human IgG1/kappa)
B3: BG87P-m6 (antibody, V domains shown)
VH: QIQLVQSGAEVKKPGASVKVSCKASGYSFTDYHINWVRQAPGQRLEWMGWIYPGSGYTKYNEKFKVRVTLTVDTSASTAYMELSSLRSEDTAVYFCARSGIYHYVSSYYFQHWGKGTTVTVSS
VL: DIQMTQSPSTLSASVGDRVTITCKASQDVGTAVAWYQQKPGKSPKLLIYWASTRHTGVPSRFSGSGSGTEFTLTISSVQPDDFATYFCQQYSSYTFGGGTKVEIK
notes: as for B2
B4: BG87P-Bz7 (antibody, V domains shown)
VH: QIQLVQSGAEVKKPGASVKVSCKASGYSFTDYHINWVRQAPGQRLEWMGWIYPGSGYTKYNEKFKVRVTLTVDTSASTAYMELSSLRSEDTAVYFCARSGIYHYVSSYYFDHWGKGTTVTVSS
VL: DIQMTQSPSTLSASVGDRVTITCKASQDVGTAVAWYQQKPGKSPKLLIYWASTRHTGVPSRFSGSGSGTEFTLTISSLQPDDFATYFCQQYSSYTFGGGTKVEIK
B5: BG87P-Bz1 (antibody, V domains shown)
VH: QVQLVQSGAEVKKPGASVKVSCKASGYSFTDYHINWVRQAPGQRLEWMGWIYPGSGYTKYNEKFKVRVTLTVDTSASTAYMELSSLRSEDTAVYFCARSGIYHYVSSYYFDHWGKGTTVTVSS
VL: DIQMTQSPSTLSASVGDRVTITCKASQDVGTAVAWYQQKPGKSPKLLIYWASTRHTGVPSRFSGSGSGTEFTLTISSVQPDDFATYFCQQYSSYTFGGGTKVEIK
B6: BG87P-Bz4 (antibody, V domains shown)
VH: QIQLVQSGAEVKKPGASVKVSCKASGYSFTDYHINWVRQAPGQRLEWMGWIYPGSGYTKYNEKFKVRVTLTRDTSASTAYMELSSLRSEDTAVYFCARSGIYHYVSSYYFDHWGKGTTVTVSS
VL: DIQMTQSPSTLSASVGDRVTITCKASQDVGTAVAWYQQKPGKSPKLLIYWASTRHTGVPSRFSGSGSGTEFTLTISSVQPDDFATYFCQQYSSYTFGGGTKVEIK
B7: BG87P-Bz6 (antibody, V domains shown)
VH: QIQLVQSGAEVKKPGASVKVSCKASGYSFTDYHINWVRQAPGQRLEWMGWIYPGSGYTKYNEKFKVRVTLTVDTSASTAYMELSSLRSEDTAVYFCARSGIYHYVSSYYFDHWGKGTTVTVSS
VL: DIQMTQSPSTLSASVGDRVTITCKASQDVGTAVAWYQQKPGKAPKLLIYWASTRHTGVPSRFSGSGSGTEFTLTISSVQPDDFATYFCQQYSSYTFGGGTKVEIK
B8: BG87P-Bz2 (antibody, V domains shown)
VH: QIQLVQSGAEVKKPGASVKVSCKASGYTFTDYHINWVRQAPGQRLEWMGWIYPGSGYTKYNEKFKVRVTLTVDTSASTAYMELSSLRSEDTAVYFCARSGIYHYVSSYYFDHWGKGTTVTVSS
VL: DIQMTQSPSTLSASVGDRVTITCKASQDVGTAVAWYQQKPGKSPKLLIYWASTRHTGVPSRFSGSGSGTEFTLTISSVQPDDFATYFCQQYSSYTFGGGTKVEIK
B9: BG87P-m8 (antibody, V domains shown)
VH: QIQLVQSGAEVKKPGASVKVSCKASGYSFTDYAINWVRQAPGQRLEWMGWIYPGSGYTKYNEKFKVRVTLTVDTSASTAYMELSSLRSEDTAVYFCARSGIYHYVSSYYFDHWGKGTTVTVSS
VL: DIQMTQSPSTLSASVGDRVTITCKASQDVGTAVAWYQQKPGKSPKLLIYWASTRHTGVPSRFSGSGSGTEFTLTISSVQPDDFATYFCQQYSSYTFGGGTKVEIK
notes: Variant of BG87P-Bz0 with H33A; constant regions not restated (parent: human IgG1/kappa)
B10: BG87P-Bz8 (antibody, V domains shown)
VH: QIQLVQSGAEVKKPGASVKVSCKASGYSFTDYHINWVRQAPGQRLEWMGWIYPGSGYTKYNEKFKVRVTLTVDTSASTAYMELSSLRSEDTAVYFCARSGIYHYVSSYYFDHWGKGTTVTVSS
VL: DIQMTQSPSTLSASVGDRVTITCKASQDVGTAVAWYQQKPGKSPKLLIYWASTRHTGVPSRFSGSGSGTEFTLTISSVQPDDFATYYCQQYSSYTFGGGTKVEIK
B11: BG87P-Bz5 (antibody, V domains shown)
VH: QIQLVQSGAEVKKPGASVKVSCKASGYSFTDYHINWVRQAPGQRLEWMGWIYPGSGYTKYNEKFKVRVTLTVDTSASTAYMELSSLRSEDTAVYYCARSGIYHYVSSYYFDHWGKGTTVTVSS
VL: DIQMTQSPSTLSASVGDRVTITCKASQDVGTAVAWYQQKPGKSPKLLIYWASTRHTGVPSRFSGSGSGTEFTLTISSVQPDDFATYFCQQYSSYTFGGGTKVEIK
B12: BG87P-Bz3 (antibody, V domains shown)
VH: QIQLVQSGAEVKKPGASVKVSCKASGYSFTDYHINWVRQAPGQRLEWMGWIYPGSGYTKYNEKFKVRVTITVDTSASTAYMELSSLRSEDTAVYFCARSGIYHYVSSYYFDHWGKGTTVTVSS
VL: DIQMTQSPSTLSASVGDRVTITCKASQDVGTAVAWYQQKPGKSPKLLIYWASTRHTGVPSRFSGSGSGTEFTLTISSVQPDDFATYFCQQYSSYTFGGGTKVEIK
B13: BG87P-m5 (antibody, V domains shown)
VH: QIQLVQSGAEVKKPGASVKVSCKASGYSFTDYHINWVRQAPGQRLEWMGWIYPGSGYTKYNEKFKVRVTLTVDTSASTAYMELSSLRSEDTAVYFCARSGIYHYVSSYYFEHWGKGTTVTVSS
VL: DIQMTQSPSTLSASVGDRVTITCKASQDVGTAVAWYQQKPGKSPKLLIYWASTRHTGVPSRFSGSGSGTEFTLTISSVQPDDFATYFCQQYSSYTFGGGTKVEIK
notes: as for B2
B14: BG87P-m1 (antibody, V domains shown)
VH: QIQLQQSGPELVKPGASVKISCKASGYSFTDYHINWVKQRPGQGLEWIGWIYPGSGYTKYNEKFKVKATLTVDTSSSTAYMHLTSLTSEDSAVYFCARSGIYHYVSSYYFEHWGQGTTLTVSS
VL: DIVMTQSHTFMSTSVGDRVSITCKASQDVGTAVAWYQQKPGQSPKLLIYWASTRHTGVPDRFTGSGSGTDFTLTISNVQSEDLADYFCQQYSSYTFGGGTKLEIK
notes: PTM removal variant of chBG87P; constant regions not restated (parent: human IgG1/kappa)
B15: BG87P-m2 (antibody, V domains shown)
VH: QIQLQQSGPELVKPGASVKISCKASGYSFTDYHINWVKQRPGQGLEWIGWIYPGSGYTKYNEKFKVKATLTVDTSSSTAYMHLTSLTSEDSAVYFCARSGIYHYVSSYYFQHWGQGTTLTVSS
VL: DIVMTQSHTFMSTSVGDRVSITCKASQDVGTAVAWYQQKPGQSPKLLIYWASTRHTGVPDRFTGSGSGTDFTLTISNVQSEDLADYFCQQYSSYTFGGGTKLEIK
notes: as for B14

This assay addresses T1, human claudin 6 (CLDN6). As to the kind of experiment: FACS, HEK293T/human CLDN6 cells. The protocol:
For affinity determination, CLDN6 over-expressing HEK293T cells and cancer cell line PA-1 which express high levels of human CLDN6 were used to evaluate the binding activity of BG87P related engineering variants. Live cells were seeded in 96-well plate, and were incubated with a series of dilutions of chBG87P and engineered variants thereof. Goat anti-human IgG was used as second antibody to detect antibody binding to the cell surface. EC50 values for dose-dependent binding to CLDN6 expressing cell lines were determined by fitting the dose-response data to the four-parameter logistic model with GraphPad Prism. Cell binding activity of 1st round of BG87P humanization variants against HEK293T/human CLDN6 were compared to chBG87P and shown in FIG. 1A.
Beginning with the chBG87P antibody and BG87P-Bz0, several additional amino acid changes in the CDR regions of both VH and VL were made to further improve the biophysical properties for therapeutics use in human. The considerations included removing post translational modifications (PTM), improved heat stability (Tm), while maintaining binding activities, the resulted variants are BG87P-m1 (VH SEQ ID NO: 31 and VL SEQ ID NO: 8), BG87P-m2 (VH SEQ ID NO: 32 and VL SEQ ID NO: 8), BG87P-m3 (VH SEQ ID NO: 33 and VL SEQ ID NO: 8), and BG87P-m4 (VH SEQ ID NO: 34 and VL SEQ ID NO: 8) and BG87P-m5 (VH SEQ ID NO: 35 and VL SEQ ID NO: 14), BG87P-m6 (VH SEQ ID NO: 36 and VL SEQ ID NO 14), BG87P-m7 (VH SEQ ID NO: 37 and VL SEQ ID NO: 14), and BG87P-m8 (VH SEQ ID NO: 38 and VL SEQ ID NO: 14). Cell binding activity of chBG87P and BG87P-Bz0 related PTM removal variants against HEK293T/human CLDN6 was compared with chBG87P and BG87-Bz0, respectively ([…]). Cell binding affinity (EC50) and Emax (MFI) was normalized to chBG87P for directly comparison and ranking (Table 7).
(In general: In flow cytometry, cells or beads pass a laser one at a time.)
Turning to B1, a half-maximal effect (EC50) was put at 2.1 nM, the “Emax ratio to BG87P” value is 0.56 ratio and the “Top MFI Mean” value was 107000 MFI.
The matching figures for B2: 2.43 nM, 0.7 ratio and 134000 MFI.
Taken in the same sequence, the figures for B3 were 2.34 nM, 0.62 ratio and 118000 MFI.
Take B4: a half-maximal response (EC50) required 2.54 nM, the “Emax ratio to BG87P” value turned out to be 0.81 ratio and the “Top MFI Mean” value is 155000 MFI.
The matching figures for B5: 2.19 nM, 0.52 ratio and 99700 MFI.
Taken in the same sequence, the figures for B6 were 1.88 nM, 0.57 ratio and 110000 MFI.
The matching figures for B7: 2.79 nM, 0.75 ratio and 144000 MFI.
For the molecule B8, the response was half-maximal at 2.65 nM (EC50), the “Emax ratio to BG87P” value is 0.44 ratio and the “Top MFI Mean” value amounted to 84300 MFI.
The matching figures for B9: 48.7 nM, 0.28 ratio and 54000 MFI.
Taken in the same sequence, the figures for B10 were 1.71 nM, 0.68 ratio and 131000 MFI.
Take B11: a half-maximal response (EC50) required 2.55 nM, the “Emax ratio to BG87P” value stood at 0.73 ratio and the “Top MFI Mean” value amounted to 141000 MFI.
Taken in the same sequence, the figures for B12 were 2.63 nM, 0.56 ratio and 107000 MFI.
Taken in the same sequence, the figures for B13 were 4.19 nM, 0.66 ratio and 126000 MFI.
Taken in the same sequence, the figures for B14 were 3.56 nM, 1.08 ratio and 207000 MFI.
On to B15, for which a half-maximal response (EC50) required 2.51 nM, the “Emax ratio to BG87P” value came out at 1.05 ratio and the “Top MFI Mean” value was found to be 202000 MFI.

What is called EC50 is the concentration giving half of the maximal effect. The low end stands for an effect from little substance, the high end for a need for much substance.
